According to paper PMC8460447 (Nature chemical biology, 2021):

Molecular target: neddylated CUL5 (human, UniProt Q93034 1-780, Lys724 isopeptide-linked to NEDD8)
Assay: cryo-EM structure

neddylated CUL5, sequence (Q93034 whole entry): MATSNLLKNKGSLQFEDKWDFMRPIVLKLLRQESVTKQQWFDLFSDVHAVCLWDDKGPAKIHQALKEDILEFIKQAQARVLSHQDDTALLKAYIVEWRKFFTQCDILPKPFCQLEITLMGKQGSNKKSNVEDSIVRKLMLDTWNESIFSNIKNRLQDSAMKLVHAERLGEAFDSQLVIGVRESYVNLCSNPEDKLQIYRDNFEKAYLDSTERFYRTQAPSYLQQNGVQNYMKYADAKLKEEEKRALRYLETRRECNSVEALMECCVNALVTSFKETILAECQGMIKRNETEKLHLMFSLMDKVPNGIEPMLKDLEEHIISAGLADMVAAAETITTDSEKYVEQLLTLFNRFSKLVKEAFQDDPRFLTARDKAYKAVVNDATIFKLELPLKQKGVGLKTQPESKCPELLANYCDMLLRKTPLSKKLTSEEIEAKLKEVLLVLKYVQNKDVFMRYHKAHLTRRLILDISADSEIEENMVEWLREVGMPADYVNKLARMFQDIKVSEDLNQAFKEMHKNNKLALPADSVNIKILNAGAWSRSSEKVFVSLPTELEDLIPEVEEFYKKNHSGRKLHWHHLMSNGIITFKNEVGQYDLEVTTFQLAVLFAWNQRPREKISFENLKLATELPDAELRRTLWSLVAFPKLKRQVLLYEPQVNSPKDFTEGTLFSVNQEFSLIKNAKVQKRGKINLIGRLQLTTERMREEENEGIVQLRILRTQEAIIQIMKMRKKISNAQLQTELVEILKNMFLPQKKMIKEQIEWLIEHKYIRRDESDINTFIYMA

Row | binding result | Binder
1 | binds | RBX2 (natural protein) EDGEETCALASHSGSSGSKSGGDKMFSLKKWNAVAMWSWDVECDTCAICRVQVMDACLRCQAENKQEDCVVVWGECNHSFHNCCMSLWVKQNNRCPLCQQDWVVQRIGK
2 | binds | ARIH2* (full-length ARIH2 with L381A, E382A and E455A residue substitutions) (enzyme) MSVDMNSQGSDSNEEDYDPNCEEEEEEEEDDPGDIEDYYVGVASDVEQQGADAFDPEEYQFTCLTYKESEGALNEHMTSLASVLKVSHSVAKLILVNFHWQVSEILDRYKSNSAQLLVEARVQPNPSKHVPTSHPPHHCAVCMQFVRKENLLSLACQHQFCRSCWEQHCSVLVKDGVGVGVSCMAQDCPLRTPEDFVFPLLPNEELREKYRRYLFRDYVESHYQLQLCPGADCPMVIRVQEPRARRVQCNRCNEVFCFKCRQMYHAPTDCATIRKWLTKCADDSETANYISAHTKDCPKCNICIEKNGGCNHMQCSKCKHDFCWMCLGDWKTHGSEYYECSRYKENPDIVNQSQQAQAREALKKYLFYFERWENHNKSLQAAAQTYQRIHEKIQERVMNNLGTWIDWQYLQNAAKLLAKCRYTLQYTYPYAYYMESGPRKKLFEYQQAQLEAEIANLSWKVERADSYDRGDLENQMHIAEQRRRTLLKDFHDT
